What was measured:
[1] = tested on: T1, L-AVP ((Arg8)-vasopressin) (Homo sapiens); experiment: ITC; details: L-RNA, hexaethylene glycol (PEG) spacer between Helix 2 and Helix 1, 37 C, 20 mM Tris pH 7.4, 150 mM NaCl, 5 mM KCl, 1 mM MgCl2, 1 mM CaCl2
T1 sequence: CYFQNCPRG

[2] = target: T2, L-oxytocin (UniProt P01178); experiment: ITC; details: L-RNA; hexaethylene glycol (PEG) spacer between Helix 2 and Helix 1; 3'-C6-amino 40 kDa PEG; 37 C; same buffer; activity 69.8%; about ten times lower affinity than …
T2 sequence: CYIQNCPLG

[3] = tested on: T3, D-AVP (D-(Arg8)-vasopressin, all-D peptide) (Homo sapiens); experiment: competition; details: biotinylated D-AVP; selection buffer
T3 sequence: CYFQNCPRG

Sequence: GGGGUAGGGCUUGGAUGGGUAGUACACGUGUGCGUGGU [CHF-F-037 spiegelmer]
- Kd ([1]; activity 46.8%): 1.7 nM

Sequence: GGGGUAGGGCUUGGAUGGGUAGUACACGUGUGCGUGGU [CHF-F-037-3'PEG spiegelmer]
- Kd [2]: 16 nM
- Kd ([1]; 3'-C6-amino 40 kDa PEG, activity 59.1%): 1.3 nM

Sequence: AGUGUGCGUGGUUAAUAAUGGGGUAGGGCUUGGAUGGGUAGUACACU [CHF-157-B4 (CHF-F-000)]
- Kd [3]: 9.5 nM
